Results from patent publication US20250163149A1, “ANTI-RAGE ANTIBODY” (Swansea University, priority 2022, published 2025).
Each block holds one molecule with its values, some of them ahead of it.

How the values were obtained:
[1] = target: RAGE (Homo sapiens, UniProt Q15109); assay: Western blot on protein extracts from human healthy tissues; conditions: brain, breast, kidney, liver, lung, ovary, pancreas, spleen and uterus
[2] = target: T1, RAGE synthetic peptide (S155) (Homo sapiens, UniProt Q15109); assay: ELISA screening of purified anti-RAGE antibody clones; assay type: binding; conditions: BSA-conjugated peptide S155; serial dilutions of antibody; 6 murine clones compared
T1 construct: purchased Biorad; host or cells: chemical synthesis
T1 sequence (Q15109 39-65 limits assumed): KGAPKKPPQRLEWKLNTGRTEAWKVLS
Protocol: A 96-well plate was coated with 5 μg/ml of RAGE synthetic peptides or RAGE recombinant protein diluted in phosphate-buffered saline (pH 7.4) overnight at 4° C. The solution was removed, washed with PBS-Tween (PBST) and the plate was blocked with ELISA ultrablock buffer (Biorad) for 1 h at room temperature. After blocking, the plate was washed with PBST and a range of concentrations of α-RAGE antibodies was applied to the plate for 2 h at room temperature. The plate was washed thoroughly with PBST and incubated with HRP-conjugated anti-mouse antibodies diluted 1:1000 in PBS-Tween. After washes with PBST, TMB Core+ substrate solution (Biorad) was added to each well and incubated at room temperature for 30 minutes. 0.2M H2SO4 was used as a stop solution. Absorbance at 450 nm was measured in a Biorad absorbance microplate reader.

[3] = system: RAGE; assay: Western blot on protein extracts from ovarian cancer cell lines (OCCL); design: species or system human; conditions: whole-cell extracts of SKOV3, OVCAR3, A2780 and cisplatin-resistant lines; antibody 1 μg/mL
RAGE, sequence (Q15109 23-317 limits assumed): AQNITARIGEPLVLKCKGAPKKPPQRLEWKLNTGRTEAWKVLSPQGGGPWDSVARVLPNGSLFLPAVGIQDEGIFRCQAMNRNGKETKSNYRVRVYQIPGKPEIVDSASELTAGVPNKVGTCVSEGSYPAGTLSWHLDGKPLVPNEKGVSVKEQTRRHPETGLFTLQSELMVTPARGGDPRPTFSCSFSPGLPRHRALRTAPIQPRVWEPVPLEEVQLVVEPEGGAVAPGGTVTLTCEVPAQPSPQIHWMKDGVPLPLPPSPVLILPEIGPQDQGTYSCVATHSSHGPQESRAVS
Protocol: Confluent cultures of cells were lysed in ice cold RIPA buffer (Sigma-Aldrich), whole-cell protein extracts were quantified with DC protein assay, 30 μg/lane were resolved by SDS-PAGE on TGX precast gels, transferred to mini PDVF membranes, blocked 1 h at RT in 5% Bovine Serum Albumin (BSA) in TBST (Tris Buffered Saline, 0.1% Tween-20) and incubated o/n at 4° C. in the same solution with 1 μg/mL of mA9 (sc-365154, Santa Cruz Biotechnology) antibody, mHA9 antibody or hHA9 antibody, or GAPDH (Santa Cruz Biotechnology) as loading control. Membranes were then washed with TBST and incubated 1 h at RT with 0.1 μg/mL of IgG horseradish peroxidase secondary antibody (GE Healthcare) or […] of Goat F(ab′) 2 Anti-Mouse IgG-F(ab′) 2 horseradish peroxidase secondary antibody (Abcam). Target proteins were visualised after incubation with Clarity Western ECL Substrate and imaged using a ChemiDoc System Bio-Rad Imager. Bands were quantified with ImageLab software. Unless stated all the materials specified above were obtained from Bio-Rad Laboratories.

[4] = target: T2, RAGE recombinant protein (Human rRAGE) (Homo sapiens, UniProt Q15109); assay: Surface plasmon resonance binding kinetics (Biacore T200), recombinant protein analyte; conditions: analyte RAGE recombinant protein, or RAGE synthetic peptide, not separated
T2 construct: Human rRAGE=Full-length RAGE recombinant protein from Merck; purchased Merck
T2 sequence (Q15109 23-404): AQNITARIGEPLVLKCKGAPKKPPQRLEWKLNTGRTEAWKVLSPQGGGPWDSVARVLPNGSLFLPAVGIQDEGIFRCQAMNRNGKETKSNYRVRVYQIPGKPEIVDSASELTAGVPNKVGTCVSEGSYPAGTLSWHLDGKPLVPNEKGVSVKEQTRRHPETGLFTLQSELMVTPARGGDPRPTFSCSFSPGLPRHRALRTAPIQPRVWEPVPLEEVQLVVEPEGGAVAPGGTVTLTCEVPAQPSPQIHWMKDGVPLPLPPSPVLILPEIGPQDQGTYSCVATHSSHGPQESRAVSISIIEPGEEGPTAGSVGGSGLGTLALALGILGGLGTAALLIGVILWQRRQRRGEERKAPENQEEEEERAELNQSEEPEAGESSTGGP
Protocol: For on-rate and off-rate screening, Biacore™ T200 system (Cytiva, Uppsala, Sweden) was used to perform SPR analysis with 1×HBS-EP+ buffer (0.01M Hepes, 0.15M NaCl, 0.003M ethylenediaminetetraacetic acid, and 0.05% Surfactant P20, pH 7.4) (BR100669) used as sample and running buffer. The analysis temperature at the sensor chip surface and within the compartment was set to 25° C. Firstly, pH scouting with 10 mM sodium acetate buffer 4.0 (BR-1003-49), 10 mM sodium acetate buffer 4.5 (BR-1003-50), 10 mM sodium acetate buffer 5.0 (BR-1003-51) and 10 mM sodium acetate buffer 5.5 (BR-1003-52) was performed to identify the optimal pH required for ligand (α-RAGE antibodies) immobilization. This was followed by diluting the ligand with the appropriate Acetate buffer to at least 10 μg/mL. The ligand immobilization on the surface Series S Sensor Chip CM5 (29-1496-03, Cytiva) was performed using the Amine Coupling Kit (BR100050, Cytiva) containing 1-Etyhyl-3-(3-dimethylaminopropyl)-carbodiimide hydrochloride (EDC), N-Hydroxysuccinimide (NHS) and 1.0M ethanolamine-HcL PH 8.5 in accordance with the manufacturer's instructions. For each experimental run, the ligand was immobilized in flow cells 2 or 4 while flow cells 1 or 3 were left unmodified. Flow cells 2 and 4 were used as active flow cells while flow cells 1 and 3 were used as reference flow cells. Ligand immobilization levels were typically within the range 500-900 RU for the kinetic experiments and injected with a flow rate of 10 μL/min and contact time of 300 s. Analytes (RAGE recombinant protein and synthetic peptides) were injected for 120 s with a flow rate of 30 μL/min and dissociation time of 600 s run in order of increasing concentration over the reference and active flow cells using a multi-cycle kinetic approach with five-seven concentration range. Following each binding cycle, the surface was regenerated with a 30 s injection of 10 mM Glycine-HcL, pH 2.5 regeneration solution (BR-1003-56), removing the bound antibody with a contact time of 30 s, flow rate of 30 μL/min and a stabilization period of Os. […]

[5] = system: SKOV3 cells; assay: Internalisation assay on SKOV3 cells; assay type: cell-based, human; conditions: 4 h or 24 h at 37° C., compared with other clones and AB11451
Protocol: To screen internalization capacity and traffic to lysosomes of α-RAGE antibodies, all the primary antibodies used in the screening were conjugated to pHAb Amine Reactive Dye following manufacturer's instructions (Promega, UK, Cat. No. G983). This type of dye emits fluorescence when traffics to acidic environments (late endosome and lysosome). For this purpose, 1.5×10^4 SKOV3 cells/well were seeded in 8-well chamber slides (Ibidi) in 300 μl of stripped medium and cultured for 24 h in a humidified, 5% CO2 in air atmosphere incubator at 37° C. After culture, cells were washed in pre-warmed (37° C.) Dulbecco's phosphate buffered saline (DPBS) and slides placed on ice. Cells were treated with control medium or medium containing one of the α-RAGE antibodies conjugated to pH-dye at 10 μg/ml, and the 8-well chamber slides were incubated on ice for 30 minutes. Slides were then transferred to the incubator at 37° C. for 4 h or 24 h. After internalization time, cells were washed in DPBS, fixed in 4% paraformaldehyde for 20 min and permeabilized with 0.1% Triton X-100 (Sigma) for 10 minutes at 4° C. Cells were washed with PBS extensively between all steps, counterstained before imaging with Hoechst (Life Technologies™) and imaged using a LSM710 confocal fluorescence microscopy system (Zeiss, UK). Unconjugated α-RAGE antibodies were also used in the internalisation assay. In this case were visualized using Alexa-fluorophore secondary antibodies as described in the immunofluorescence method.

[6] = target: synthetic peptide S155 of the RAGE V-domain (amino acids 39-65) (human); assay: ELISA, BSA-conjugated peptide S155 on the plate, two-fold dilutions of antibody, HRP anti-mouse, OD 450 nm
[7] = target: synthetic peptide S155 of the RAGE V-domain (amino acids 39-65) (human); assay: SPR (Biacore T200), antibody amine-coupled to a CM5 chip as ligand, RAGE peptide S155 (BioRad) as analyte, multi-cycle kinetics, 1:1 fit; 'No steady state.'
[8] = target: Human rRAGE, full-length RAGE recombinant protein from Merck (human) (UniProt Q15109); assay: SPR (Biacore T200), antibody amine-coupled to a CM5 chip as ligand, RAGE recombinant protein (Merck) as analyte, multi-cycle kinetics, 1:1 fit
Human rRAGE, full-length RAGE recombinant protein from Merck (human), sequence (Q15109 23-404 limits assumed): as the sequence (Q15109 23-404) above

RAGE (Homo sapiens, UniProt Q15109), sequence (Q15109 23-404): as above

RAGE expression detected in human healthy tissues [1]: absent or very low expression | affinity interaction by SPR (summary statement) [4]: weak affinity interaction
B1: mHA9: murine version of anti-RAGE antibody clone HA9 (antibody, V domains shown)
VH: EVKLVETGGGLVQPGRPMKLSCVASGFTLSDHWMNWVRQSPEKGLEWVAQIRNRPYKFEKYYSDSVKGRFTISRDDSKNSVYLQMNNLRAEDMGIYYCSSYRYGLAYWGQGTLVTVST
VL: DNLLTQSPAILSVSPGERVSFSCRASQTIDTRIHWYQQRKNGSPRLLIRYISESLSGIPSRFSGSGSGTEFTLTINSVESEDIADYYCQQTESWPITFGSGTKLEIK
binding to immobilised RAGE synthetic peptide [2]: highest affinity for the peptide sequence antigen | RAGE isoform detected by western blot [3]: able to detect expression levels of full-length transmembrane RAGE

binding to immobilised RAGE synthetic peptide [2]: best binding response to the antigen
B2: HA9: anti-RAGE monoclonal antibody clone, VH SEQ ID NO: 7, VL SEQ ID NO: 8, raised against RAGE aa 39-65 (antibody, V domains shown)
VH: B1 VH
VL: B1 VL
uptake (internalisation), secondary antibody detection [5]: highest uptake levels

EC50 (read off the curve) [6]: 1 µg/mL | Kd [7]: 0.2 µM | koff [7]: 0.00515 s⁻¹ | kon [7]: 25000 M⁻¹ s⁻¹ | Kd [8]: 6.94 µM | koff [8]: 0.00561 s⁻¹ | kon [8]: 808 M⁻¹ s⁻¹
B3: murine ID9 anti-RAGE monoclonal antibody (antibody, part only; not given: Light chain variable region, V domains shown, part only)
VH: QVTLKESGPGILKPSQTLSLTCSFSGFSLSTSGMGVGWIRQPSGKGLEWLAHIWWDDDKYYKPSLKSQVTISKDTSRNQVFLKITSVDTADTATYYCARSRYYGSSGMDYWGQGTSVTVSS
